Positions count from the first letter of the chain named. “And” between values parts separate entries of the source, which are not always exact repeats. Equal entries are not always repeated. “Also recorded” adds a separate entry of the source. Bridge positions count the residues as written; N and C are the ends. Ends that are not written are not given here. Peptide text beside a SMILES is read from it.
T1: hKv3.2 (Homo sapiens, UniProt Q96PR1)
T1 sequence (Q96PR1 1-638): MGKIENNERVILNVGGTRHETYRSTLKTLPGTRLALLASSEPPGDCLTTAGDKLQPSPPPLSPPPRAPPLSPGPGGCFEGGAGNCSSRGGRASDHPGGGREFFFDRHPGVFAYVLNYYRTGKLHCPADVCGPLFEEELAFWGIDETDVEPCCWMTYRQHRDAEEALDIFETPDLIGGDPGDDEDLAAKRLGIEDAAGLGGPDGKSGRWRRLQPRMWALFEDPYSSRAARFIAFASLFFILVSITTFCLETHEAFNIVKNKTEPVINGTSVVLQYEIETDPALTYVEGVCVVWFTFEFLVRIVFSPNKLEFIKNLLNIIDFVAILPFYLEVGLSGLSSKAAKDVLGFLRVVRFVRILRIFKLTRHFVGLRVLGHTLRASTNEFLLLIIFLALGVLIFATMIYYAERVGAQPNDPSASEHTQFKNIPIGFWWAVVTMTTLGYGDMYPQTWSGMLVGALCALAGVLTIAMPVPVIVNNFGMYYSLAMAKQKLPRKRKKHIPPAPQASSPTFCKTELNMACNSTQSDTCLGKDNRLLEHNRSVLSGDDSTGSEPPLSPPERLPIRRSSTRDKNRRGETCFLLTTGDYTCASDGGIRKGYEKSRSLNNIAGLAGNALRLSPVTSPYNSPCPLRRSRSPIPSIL

T2: hKv3.2 (human (only by the printed prefix h), UniProt Q96PR1)
T2 sequence: T1 sequence (Q96PR1 1-638)

B1: Ac-OsK1-NH2 (peptide)
peptide: Ac-GVIINVKCKISRQCLEPCKKAGMRFGKCMNGKCHCTPK-NH2
modifications: ends and bridges not checked
B2: [Δ^1]-OsK1-NH2 (peptide)
peptide: VIINVKCKISRQCLEPCKKAGMRFGKCMNGKCHCTPK-NH2
modifications: ends and bridges not checked
B3: [K^16]-OsK1 (peptide)
peptide: GVIINVKCKISRQCLKPCKKAGMRFGKCMNGKCHCTPK
modifications: ends and bridges not checked; cysteine pairing not given here
B4: [D^20]-OsK1 (peptide)
peptide: B3 peptide with K16E, K20D
modifications: ends and bridges not checked; cysteine pairing not given here
B5: OsK1 (peptide)
peptide: B3 peptide with K16E
B6: OsK1-NH2 (peptide)
peptide: GVIINVKCKISRQCLEPCKKAGMRFGKCMNGKCHCTPK-NH2
modifications: ends and bridges not checked

How the values were obtained:
[1] = biological target: T1, hKv3.2; assay: patch-clamp whole-cell recording, K+ current block; format: cell-based
Protocol: (§1) Electrophysiological experiments were carried out at 22-24° C. using the patch-clamp whole-cell recording mode. Cells were bathed with mammalian Ringer's solution (in mM): 160 NaCl, 4.5 KCl, 2 CaCl2, 1 MgCl2, and 10 HEPES (pH 7.4 with NaOH), with an osmolarity of 290-320 mOsm. […] A syringe-driven perfusion device was used to exchange the external recording bath solution. Two internal pipette solutions were used, one for measuring voltage-gated K^+ currents that contained (in mM): 155 KF, 2 MgCl2, 10 HEPES, and 10 EGTA (pH 7.2 with KOH), with an osmolarity of 290-320 mOsm and another for measuring Ca^2+-activated K^+ currents that contained (in mM): 135 K-aspartate, 8.7 CaCl2, 2 MgCl2, 10 EGTA, 10 HEPES (pH 7.2 with KOH), with an osmolarity of 290-320 mOsm. A free [Ca^2+]i of 1 μM was calculated. All currents through voltage-gated K^+ channels were elicited by 200 ms depolarising voltage steps from −80 to +40 mV. Potassium currents through KCa1.1, KCa2.1 and KCa3.1 were elicited by 1 μM internal [Ca^2+]i and 400 ms voltage ramps from −120 to 0 mV (for KCa3.1 channel and KCa1.1 channel) and from −120 to +40 mV (for KCa2.1 channel). Electrodes were pulled from glass capillaries (Science Products, Germany), and fire-polished to resistances of 2.5-5 MΩ. Membrane currents were measured with an EPC-9 or EPC-10 patch-clamp amplifier (HEKA Elektronik, Lambrecht, Germany) interfaced to a Macintosh computer running acquisition and analysis software (Pulse and PulseFit). When voltage-gated K^+ currents were measured, the capacitive and leak currents were subtracted using a P/10 procedure. Series resistance compensation (>80%) was used for currents above 2 nA. The holding potential was −80 mV in all experiments.

[2] = biological target: hIK1 (KCa3.1) (Homo sapiens, UniProt O15554); assay: patch-clamp whole-cell recording, Ca2+-activated K+ current block; format: cell-based
Protocol: as §1

[3] = toxicity in vivo, LD50 after intracerebroventricular injection; details: mouse, icv or intrathecal, 20 g C57/BL6 mice
Protocol: Groups of six to eight mice per dose were injected with 5 μl peptide solution containing 0.1% (w/v) bovine serum albumin and 0.9% (w/v) NaCl. The LD50 values are set out in Table 5.

[4] = tested on: Lewis rats immunized with spinal cord homogenate; assay: treatment of chronic relapsing EAE, osmotic pump IP; format: in vivo; details: MTx 50 nM
Protocol: Each rat received 200 μl of emulsion sc, divided in the rear footpads, on day 0. Eight days later, as their body weight decreased, a precursor sign for clinical EAE, an osmotic pump was implanted IP. The pump delivered drugs at 1 μl/h for 8 days. They were filled with the peptide blockers, dissolved in Na Cl 0.15 M containing 2% Lewis serum, as vehicle.
Clinical evaluation. The severity of the disease was scored on a scale of 0 to 6, with 0.5 points for intermediate clinical findings (0: no clinical signs; 1.0: limp tail; 2.0: mild paraparesis and ataxia; 3.0: moderate paraparesis; 4.0: complete hind limb paralysis; 5.0: paralysis+incontinence; 5.5: tetraplegia; 6.0: moribund or death). Rats were weighed every day. Rats showing no clinical signs of EAE and no weight loss were excluded from the studies. The beneficial effects of K^+ blockers on EAE were evaluated by a reduction in clinical severity and in duration of the disease and in number of relapses compared with those of rats treated with the vehicle only, 0.15 M NaCl.
Data analysis. Statistical analysis was conducted using the Mann-Whitney U test. Mean differences between groups were considered significant at values of P<0.05.

[5] = biological target: mKv1.3 (Mus musculus, UniProt P16390); assay: patch-clamp whole-cell recording, K+ current block; format: cell-based
Protocol: as §1

[6] = biological target: hKv1.2 (human (only by the printed prefix h), UniProt P16389); assay: cell-based or functional assay
[7] = biological target: T2, hKv3.2; assay: cell-based or functional assay
[8] = biological target: mKv1.1 (mouse (only by the printed prefix m), UniProt P16388); assay: cell-based or functional assay
[9] = biological target: mKv1.3 (mouse (only by the printed prefix m), UniProt P16390); assay: cell-based or functional assay
[10] = biological target: hIK1 (human (only by the printed prefix h), UniProt O15554); assay: cell-based or functional assay

Sequence of mKv1.3 (Mus musculus, UniProt P16390) (P16390 whole entry): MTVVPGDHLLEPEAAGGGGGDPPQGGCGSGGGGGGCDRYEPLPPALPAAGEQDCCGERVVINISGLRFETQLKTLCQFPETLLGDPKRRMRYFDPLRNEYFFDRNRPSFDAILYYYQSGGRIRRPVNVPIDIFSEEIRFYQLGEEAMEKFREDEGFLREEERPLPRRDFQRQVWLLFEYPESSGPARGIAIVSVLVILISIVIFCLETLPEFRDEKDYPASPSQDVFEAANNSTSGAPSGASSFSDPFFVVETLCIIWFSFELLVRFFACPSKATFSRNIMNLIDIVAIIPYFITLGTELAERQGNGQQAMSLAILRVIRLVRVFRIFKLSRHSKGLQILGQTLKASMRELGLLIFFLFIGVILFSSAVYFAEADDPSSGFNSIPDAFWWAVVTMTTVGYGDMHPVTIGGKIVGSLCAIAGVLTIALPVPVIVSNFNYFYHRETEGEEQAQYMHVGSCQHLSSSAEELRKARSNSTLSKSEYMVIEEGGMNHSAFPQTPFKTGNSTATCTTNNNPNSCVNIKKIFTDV
Sequence of hIK1 (KCa3.1) (O15554 whole entry): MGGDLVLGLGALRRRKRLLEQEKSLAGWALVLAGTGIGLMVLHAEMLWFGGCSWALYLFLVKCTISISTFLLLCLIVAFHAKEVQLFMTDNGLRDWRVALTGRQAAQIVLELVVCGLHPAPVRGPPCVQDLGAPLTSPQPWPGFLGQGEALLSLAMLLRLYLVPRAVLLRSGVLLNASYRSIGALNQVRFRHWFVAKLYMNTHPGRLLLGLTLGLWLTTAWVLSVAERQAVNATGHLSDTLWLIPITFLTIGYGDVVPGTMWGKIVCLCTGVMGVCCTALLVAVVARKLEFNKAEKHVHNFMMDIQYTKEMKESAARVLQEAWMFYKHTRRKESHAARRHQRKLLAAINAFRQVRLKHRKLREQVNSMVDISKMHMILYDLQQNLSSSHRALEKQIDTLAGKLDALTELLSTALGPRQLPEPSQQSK

Molecule | IC50 [1] [nM] | LD50 [3] [µg/kg] | ID50 [6] [nM] | ID50 [7] [nM] | ID50 [8] [nM] | ID50 [9] [nM] | ID50 [10] [nM] | also measured
CC[C@H](C)[C@@H]1NC(=O)[C@H](CCCCN)NC(=O)[C@@H](NC(=O)[C@H](CCCCN)NC(=O)[C@@H](NC(=O)[C@H](CC(N)=O)NC(=O)[C@@H](NC(=O)[C@H](CCCCN)NC(=O)[C@@H](NC(=O)CN)C(C)C)[C@@H](C)CC)C(C)C)CSSC[C@@H]2NC(=O)[C@H](CCCCN)NC(=O)CNC(=O)[C@H](Cc3ccccc3)NC(=O)[C@H](CCCNC(=N)N)NC(=O)[C@H](CCSC)NC(=O)CNC(=O)[C@H](C)NC(=O)[C@H](CC(=O)O)NC(=O)[C@H](CCCCN)NC(=O)[C@@H]3CSSC[C@@H](C(=O)N[C@H](C(=O)N4CCC[C@H]4C(=O)N[C@@H](CCCCN)C(N)=O)[C@@H](C)O)NC(=O)[C@H](Cc4c[nH]cn4)NC(=O)[C@H](CSSC[C@H](NC(=O)[C@H](CCC(N)=O)NC(=O)[C@H](CCCNC(=N)N)NC(=O)[C@H](CO)NC1=O)C(=O)N[C@@H](CC(C)C)C(=O)N[C@@H](CCCCN)C(=O)N1CCC[C@H]1C(=O)N3)NC(=O)[C@H](CCCCN)NC(=O)CNC(=O)[C@H](CC(N)=O)NC(=O)[C@H](CCSC)NC2=O (H-GVKINVKCKISRQCLKPCKDAGMRFGKCMNGKCHCTPK-NH2; disulfide 8-28, 14-33, 18-35) | > 1000 | 2.25 | – | – | – | – | – | IC50 [2]: > 1000 nM
CC[C@H](C)[C@@H]1NC(=O)[C@H](CCCCN)NC(=O)[C@@H](NC(=O)[C@H](CCCCN)NC(=O)[C@@H](NC(=O)[C@H](CC(N)=O)NC(=O)[C@@H](NC(=O)[C@@H](NC(=O)[C@@H](NC(=O)CNC(C)=O)C(C)C)[C@@H](C)CC)[C@@H](C)CC)C(C)C)CSSC[C@@H]2NC(=O)[C@H](CCCCN)NC(=O)CNC(=O)[C@H](Cc3ccccc3)NC(=O)[C@H](CCCNC(=N)N)NC(=O)[C@H](CCSC)NC(=O)CNC(=O)[C@H](C)NC(=O)[C@H](CCCCN)NC(=O)[C@H](CCCCN)NC(=O)[C@@H]3CSSC[C@@H](C(=O)N[C@H](C(=O)N4CCC[C@H]4C(=O)N[C@@H](CCCCN)C(N)=O)[C@@H](C)O)NC(=O)[C@H](Cc4c[nH]cn4)NC(=O)[C@H](CSSC[C@H](NC(=O)[C@H](CCC(N)=O)NC(=O)[C@H](CCCNC(=N)N)NC(=O)[C@H](CO)NC1=O)C(=O)N[C@@H](CC(C)C)C(=O)N[C@@H](CCC(=O)O)C(=O)N1CCC[C@H]1C(=O)N3)NC(=O)[C@H](CCCCN)NC(=O)CNC(=O)[C@H](CC(N)=O)NC(=O)[C@H](CCSC)NC2=O [Ac-OsK1-NH2] | > 1000 | 11 | – | – | – | – | – | –
VSCTGSKDCYAPCRKQTGCPNA-KCINK-SCKCYGC [MTx] | – | – | – | – | – | – | – | Incid [4]: 100%; Max Clin Sc, Mean ± SD ([4]; group mean, scale 0 to 6): 2.2 ± 1.5; Duration (days), first episode of EAE ([4]; individual rats): chronic (3×) and 11 days; Onset (day), first episode of EAE ([4]; individual rats): d11 day; also recorded: d8 day; also recorded: d7 day; Max Clin Sc ([4]; individual rats, scale 0 to 6): 4 and 1 (2×) and 3
CC[C@H](C)[C@@H]1NC(=O)[C@H](CCCCN)NC(=O)[C@@H](NC(=O)[C@H](CCCCN)NC(=O)[C@@H](NC(=O)[C@H](CC(N)=O)NC(=O)[C@@H](NC(=O)[C@@H](NC(=O)[C@@H](NC(=O)CN)C(C)C)[C@@H](C)CC)[C@@H](C)CC)C(C)C)CSSC[C@@H]2NC(=O)[C@H](CCCCN)NC(=O)CNC(=O)[C@H](Cc3ccccc3)NC(=O)[C@H](CCCNC(=N)N)NC(=O)[C@H](CCSC)NC(=O)CNC(=O)[C@H](C)NC(=O)[C@H](CC(=O)O)NC(=O)[C@H](CCCCN)NC(=O)[C@@H]3CSSC[C@@H](C(=O)N[C@H](C(=O)N4CCC[C@H]4C(=O)N[C@@H](CCCCN)C(=O)O)[C@@H](C)O)NC(=O)[C@H](Cc4c[nH]cn4)NC(=O)[C@H](CSSC[C@H](NC(=O)[C@H](CCC(N)=O)NC(=O)[C@H](CCCNC(=N)N)NC(=O)[C@H](CO)NC1=O)C(=O)N[C@@H](CC(C)C)C(=O)N[C@@H](CCCCN)C(=O)N1CCC[C@H]1C(=O)N3)NC(=O)[C@H](CCCCN)NC(=O)CNC(=O)[C@H](CC(N)=O)NC(=O)[C@H](CCSC)NC2=O (H-GVIINVKCKISRQCLKPCKDAGMRFGKCMNGKCHCTPK-OH; disulfide 8-28, 14-33, 18-35) | > 1000 | 2.5 | – | – | – | – | – | activity on Kv1.3 channel (in words) [5]: the most potent Kv1.3 channel blocker characterized so far; potency on the Kv1.3 channel relative to OsK1 ([5]; compared with OsK1): about five times more potent; activity on IK1 (in words) [2]: shares the same activity on IK1
B1 | – | – | ~1300 | > 1000 | – | – | – | –
B2 | – | – | 85 | > 1000 | 2.06 | 0.038 | 620 | –
B3 | – | – | 5.23 | – | 0.63 | 0.067 | 151 | –
B4 | – | – | 77.8 | – | 2.95 | 0.037 | 716 | –
B5 | – | – | – | > 1000 | – | – | – | –
B6 | – | – | 26 | > 1000 | – | – | – | –

— US7745575B1 (Cellpep Pharma Inc., priority 2004, dated 2010)
